Substitutions are numbered along the chain they refer to.
How the values were obtained:
[1] = target: T1, 191P4D12 (human, wild type, on cells) (human, UniProt Q96NY8 32-510); test: FACS saturation binding on PC3-human-191P4D12 cells
T1 construct: 510 amino acid ORF expressed on PC3, RAT/Rat1(E) cells and present in cancer cell lines and tumor specimens; also called human 191P4D12; wild-type 191P4D12
T1 sequence: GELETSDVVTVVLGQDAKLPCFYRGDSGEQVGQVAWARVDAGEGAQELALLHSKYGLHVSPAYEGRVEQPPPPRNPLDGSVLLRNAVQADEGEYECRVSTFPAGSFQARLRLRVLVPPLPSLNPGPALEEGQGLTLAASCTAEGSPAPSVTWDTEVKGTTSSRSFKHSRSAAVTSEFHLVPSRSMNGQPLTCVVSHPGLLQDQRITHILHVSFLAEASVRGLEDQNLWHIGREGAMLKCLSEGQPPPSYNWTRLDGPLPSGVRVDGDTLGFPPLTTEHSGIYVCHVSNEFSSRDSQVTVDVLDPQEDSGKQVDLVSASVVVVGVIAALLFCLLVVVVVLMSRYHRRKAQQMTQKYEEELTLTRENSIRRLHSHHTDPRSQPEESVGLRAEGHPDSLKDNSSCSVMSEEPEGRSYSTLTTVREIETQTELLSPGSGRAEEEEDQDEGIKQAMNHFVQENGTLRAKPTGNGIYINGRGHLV
Experimental: (§1) Ha22-2(2,4)6.1vcMMAE was tested for its binding affinity to 191P4D12 expressed on the surface of PC3-human-191P4D12, PC3-Cynomolgus-191P4D12, and PC3-rat-191P4D12 cells respectively. Briefly, eleven (11) dilutions of Ha22-2(2,4)6.1vcMMAE were incubated with each of the cell types (50,000 cells per well) overnight at 4° C. at a final concentration of 160 nM to 0.011 nM. At the end of the incubation, cells are washed and incubated with anti-hIgG-PE detection antibody for 45 min at 4° C. After washing the unbound detection antibodies, the cells are analyzed by FACS. MFI values were entered into Graphpad Prisim software and analyzed using the one site binding (hyperbola) equation of Y=Bmax*X/(Kd+X) to generate Ha22-2(2,4)6.1vcMMAE saturation curves shown also in FIGS. 6-8 respectively. Bmax is the MFI value at maximal binding of Ha22-2(2,4)6.1vcMMAE to 191P4D12; Kd is the Ha22-2(2,4)6.1vcMMAE binding affinity which is the concentration of Ha22-2(2,4)6.1vcMMAE required to reach half-maximal binding.

[2] = target: T2, Cynomolgus 191P4D12 (on PC3 cells) (cynomolgus monkey, UniProt A0A2K5WES1 32-510); test: FACS saturation binding on PC3-Cynomolgus-191P4D12 cells
T2 construct: also called PC3-Cynomolgus-191P4D12; Cyno ortholog
T2 sequence: T1 sequence with V39A, I230V, A437T
Experimental: as §1

[3] = target: T3, purified recombinant 191P4D12 (ECD amino acids 1-348) (human, UniProt Q96NY8 32-348); test: SPR (Biacore), ADC captured by anti-human Fc, 191P4D12 ECD as analyte
T3 construct: Range as printed
T3 sequence: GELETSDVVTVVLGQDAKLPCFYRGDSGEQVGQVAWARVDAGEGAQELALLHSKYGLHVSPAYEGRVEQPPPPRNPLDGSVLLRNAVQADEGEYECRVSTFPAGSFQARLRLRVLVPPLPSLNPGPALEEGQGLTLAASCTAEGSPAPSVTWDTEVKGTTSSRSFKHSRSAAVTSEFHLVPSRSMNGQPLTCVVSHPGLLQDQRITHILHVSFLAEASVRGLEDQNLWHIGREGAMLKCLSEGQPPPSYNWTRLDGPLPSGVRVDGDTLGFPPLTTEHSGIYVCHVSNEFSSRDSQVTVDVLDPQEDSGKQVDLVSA
Experimental: The affinity of Ha22-2(2,4)6.1 MAb and Ha22-2(2,4)6.1vcMMAE to purified recombinant 191P4D12 (ECD amino acids 1-348) was performed by Surface Plasmon Resonance (SPR) (BIAcore). Briefly, goat-anti-human Fcγ polyclonal Abs (Jackson Immuno Research Labs, Inc.) were covalently immobilized on the surface of a CM5 sensor chip (Biacore). Purified Ha22-2(2,4)6.1 MAb or Ha22-2(2,4)6.1vcMMAE were then captured on the surface of said chip. On average, approximately 300 RUs of test Ha22-2(2,4)6.1 MAb or Ha22-2(2,4)6.1vcMMAE was captured in every cycle. Subsequently, a series of five (5) to six (6) dilutions of recombinant 191P4D12 (ECD amino acids 1-348) ranging from 1 nM to 100 nM was injected over such surface to generate binding curves (sensograms) that were processed and globally fit to a 1:1 interaction model using BIAevaluation 3.2 and CLAMP software (Myszka and Morton, 1998) (FIG. 22). Table V summarizes association and dissociation rate constants as well as affinities of Ha22-2(2,4)6.1 MAb and Ha22-2(2,4)6.1 vcMMAE to recombinant 191P4D12 (ECD amino acids 1-348).

[4] = target: T4, Rat 191P4D12 (on PC3 cells) (rat, UniProt D3ZET1 31-509); test: FACS saturation binding on PC3-rat-191P4D12 cells
T4 construct: whole, on cells; also called PC3-rat-191P4D12; Rat ortholog
T4 sequence: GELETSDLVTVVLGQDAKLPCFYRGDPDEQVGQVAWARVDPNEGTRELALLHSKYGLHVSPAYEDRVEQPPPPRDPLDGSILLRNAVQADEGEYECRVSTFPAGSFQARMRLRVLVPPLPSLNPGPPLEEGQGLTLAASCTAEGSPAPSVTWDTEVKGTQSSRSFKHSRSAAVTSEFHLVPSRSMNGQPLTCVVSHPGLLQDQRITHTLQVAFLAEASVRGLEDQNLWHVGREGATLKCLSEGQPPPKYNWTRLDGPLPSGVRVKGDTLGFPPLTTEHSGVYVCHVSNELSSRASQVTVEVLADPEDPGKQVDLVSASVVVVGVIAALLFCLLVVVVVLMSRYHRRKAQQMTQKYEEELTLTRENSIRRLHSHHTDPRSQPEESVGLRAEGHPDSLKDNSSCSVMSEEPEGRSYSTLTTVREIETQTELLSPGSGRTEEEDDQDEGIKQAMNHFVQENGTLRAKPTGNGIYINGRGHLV
Experimental: as §1

B1: Ha22-2(2,4)6.1vcMMAE (antibody, human IgG1, kappa, V domains shown)
VH: EVQLVESGGGLVQPGGSLRLSCAASGFTFSSYNMNWVRQAPGKGLEWVSYISSSSSTIYYADSVKGRFTISRDNAKNSLSLQMNSLRDEDTAVYYCARAYYYGMDVWGQGTTVTVSS
VL: DIQMTQSPSSVSASVGDRVTITCRASQGISGWLAWYQQKPGKAPKFLIYAASTLQSGVPSRFSGSGSGTDFTLTISSLQPEDFATYYCQQANSFPPTFGGGTKVEIKR
modifications: vcMMAE (Val-Cit linker, MMAE) on cysteine thiols after partial TCEP reduction, positions not given; p about 3.8 drugs per antibody
notes: also called Ha22-2(2,4)6.1ADC
Which Kd [1] does the source give for B1 here?
The Kd was 0.69 nM.

What about the Kd [2] of the same binder?
Its Kd is 0.34 nM.

And the Kd [3]?
Its Kd is 11 nM.

And the koff [3]?
The koff was 0.0052 s⁻¹.

And the kon [3]?
The kon was 450000 M⁻¹ s⁻¹.

What about the Kd [4] of the same binder?
Its Kd is 1.6 nM.

From US20260034234A1 (AGENSYS, published 2026)
